β-galactosidase activity data for one substance are collected here from publication PMC6459899, “Pleiotropic Clostridioides difficile Cyclophilin PpiB Controls Cysteine-Tolerance, Toxin Production, the Central Metabolism and Multiple Stress Responses” (Frontiers in Pharmacology, 2019).

This test addresses CdPpiB wild type fused to the T25 subunit of adenylate cyclase (pKNTB) (C. difficile str. 630Δerm) (UniProt Q18D70). Briefly: two-hybrid; BACTH in E. coli BTH101; β-galactosidase assay (ONPG, 12 min, 30°C) in Miller Units, cultures grown o/n at 30°C with 0.5 mM IPTG.

The substance “Lrp P87A fused to the T18 subunit of adenylate cyclase (natural protein)” registered a β-galactosidase activity of 869 MU.
